Molecular target: T1, SipB (recombinant, His-tag technology, expressed in E. coli) (Salmonella, UniProt Q56019 1-593)
T1 construct: also called first 'translocator' protein SipB from SPI-1
T1 sequence: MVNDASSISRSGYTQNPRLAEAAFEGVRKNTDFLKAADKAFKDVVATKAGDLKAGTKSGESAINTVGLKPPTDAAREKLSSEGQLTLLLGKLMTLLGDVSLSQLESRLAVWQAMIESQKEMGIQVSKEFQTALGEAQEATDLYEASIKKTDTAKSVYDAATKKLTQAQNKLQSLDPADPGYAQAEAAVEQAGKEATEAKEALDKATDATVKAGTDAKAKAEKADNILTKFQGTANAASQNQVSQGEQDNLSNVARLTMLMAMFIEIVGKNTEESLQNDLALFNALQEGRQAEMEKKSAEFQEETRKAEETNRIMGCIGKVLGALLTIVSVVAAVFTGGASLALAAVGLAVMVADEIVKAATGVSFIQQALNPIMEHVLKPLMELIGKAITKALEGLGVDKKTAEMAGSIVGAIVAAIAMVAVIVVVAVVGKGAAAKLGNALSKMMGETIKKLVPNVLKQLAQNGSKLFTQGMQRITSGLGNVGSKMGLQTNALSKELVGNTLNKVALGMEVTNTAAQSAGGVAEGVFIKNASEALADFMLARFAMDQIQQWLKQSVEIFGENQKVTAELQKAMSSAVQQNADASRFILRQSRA
Assay: co-expression in E. coli and co-purification by column chromatography

B1: SicA, cognate chaperone of SipB (other)
chain: MDYQNNVSEERVAEMIWDAVSEGATLKDVHGIPQDMMDGLYAHAYEFYNQGRLDEAETFFRFLCIYDFYNPDYTMGLAAVCQLKKQFQKACDLYAVAFTLLKNDYRPVFFTGQCQLLMRKAAKARQCFELVNERTEDESLRAKALVYLEALKTAETEQHSEQEKE
**Q.** Does B1 bind?
**A.** binds

Reference: patent US20160220655A1 (BOARD OF REGENTS FOR OKLAHOMA STATE UNIVERSITY, published 2016)
